Test results: article PMC2708935
pKd: −log10 of the molar value. Values joined by “and” are separate entries in the source; they are usually repeats but may differ in a detail not shown here. Identical values can stand only once. Like-named read-outs stand apart in the source and are kept apart here.

How the values were obtained:
[1] = biological target: CR56, LRP fragment containing domains CR5 and CR6 (UniProt Q07954); test: ITC
[2] = biological target: CR34, LRP fragment containing domains CR3 and CR4; test: other fluorescence titration
[3] = biological target: CR45, LRP fragment containing domains CR4 and CR5; test: other fluorescence titration
[4] = biological target: CR456, LRP fragment containing domains CR4, CR5 and CR6; test: other fluorescence titration
[5] = biological target: CR56, LRP fragment containing domains CR5 and CR6 (UniProt Q07954); test: other fluorescence titration
[6] = biological target: CR567, LRP fragment containing domains CR5, CR6 and CR7; test: other fluorescence titration
[7] = biological target: CR678, LRP fragment containing domains CR6, CR7 and CR8; test: other fluorescence titration
[8] = biological target: CR78, LRP fragment containing domains CR7 and CR8; test: other fluorescence titration
[9] = biological target: CR89, LRP fragment containing domains CR8 and CR9; test: other fluorescence titration
[10] = biological target: receptor-associated protein (RAP), GST-free (UniProt P30533); test: ITC
[11] = biological target: receptor-associated protein (RAP), GST-free (UniProt P30533); test: native gel or EMSA
[12] = biological target: receptor-associated protein (RAP), GST-free (UniProt P30533); test: SEC
RAP domain 1 (D1) [13] = test: other fluorescence titration
RAP domain 2 (D2) [14] = biological target: RAP domain 2 (D2) (UniProt P30533); test: other fluorescence titration
RAP domain 3 (D3) [15] = test: other fluorescence titration
[16] = biological target: receptor-associated protein (RAP), GST-free (UniProt P30533); test: AUC
RAP domain 1 (D1) [17] = test: other fluorescence titration; remark: listed apart in the source
RAP domain 2 (D2) [18] = biological target: RAP domain 2 (D2) (UniProt P30533); test: other fluorescence titration; remark: listed apart in the source
RAP domain 3 (D3) [19] = test: other fluorescence titration; remark: listed apart in the source
[20] = biological target: receptor-associated protein (RAP), GST-free (UniProt P30533); test: other fluorescence titration
[21] = biological target: CR345, LRP fragment containing domains CR3, CR4 and CR5; test: other fluorescence titration
Sequence of CR345, LRP fragment containing domains CR3, CR4 and CR5 (Q07954 20-4544): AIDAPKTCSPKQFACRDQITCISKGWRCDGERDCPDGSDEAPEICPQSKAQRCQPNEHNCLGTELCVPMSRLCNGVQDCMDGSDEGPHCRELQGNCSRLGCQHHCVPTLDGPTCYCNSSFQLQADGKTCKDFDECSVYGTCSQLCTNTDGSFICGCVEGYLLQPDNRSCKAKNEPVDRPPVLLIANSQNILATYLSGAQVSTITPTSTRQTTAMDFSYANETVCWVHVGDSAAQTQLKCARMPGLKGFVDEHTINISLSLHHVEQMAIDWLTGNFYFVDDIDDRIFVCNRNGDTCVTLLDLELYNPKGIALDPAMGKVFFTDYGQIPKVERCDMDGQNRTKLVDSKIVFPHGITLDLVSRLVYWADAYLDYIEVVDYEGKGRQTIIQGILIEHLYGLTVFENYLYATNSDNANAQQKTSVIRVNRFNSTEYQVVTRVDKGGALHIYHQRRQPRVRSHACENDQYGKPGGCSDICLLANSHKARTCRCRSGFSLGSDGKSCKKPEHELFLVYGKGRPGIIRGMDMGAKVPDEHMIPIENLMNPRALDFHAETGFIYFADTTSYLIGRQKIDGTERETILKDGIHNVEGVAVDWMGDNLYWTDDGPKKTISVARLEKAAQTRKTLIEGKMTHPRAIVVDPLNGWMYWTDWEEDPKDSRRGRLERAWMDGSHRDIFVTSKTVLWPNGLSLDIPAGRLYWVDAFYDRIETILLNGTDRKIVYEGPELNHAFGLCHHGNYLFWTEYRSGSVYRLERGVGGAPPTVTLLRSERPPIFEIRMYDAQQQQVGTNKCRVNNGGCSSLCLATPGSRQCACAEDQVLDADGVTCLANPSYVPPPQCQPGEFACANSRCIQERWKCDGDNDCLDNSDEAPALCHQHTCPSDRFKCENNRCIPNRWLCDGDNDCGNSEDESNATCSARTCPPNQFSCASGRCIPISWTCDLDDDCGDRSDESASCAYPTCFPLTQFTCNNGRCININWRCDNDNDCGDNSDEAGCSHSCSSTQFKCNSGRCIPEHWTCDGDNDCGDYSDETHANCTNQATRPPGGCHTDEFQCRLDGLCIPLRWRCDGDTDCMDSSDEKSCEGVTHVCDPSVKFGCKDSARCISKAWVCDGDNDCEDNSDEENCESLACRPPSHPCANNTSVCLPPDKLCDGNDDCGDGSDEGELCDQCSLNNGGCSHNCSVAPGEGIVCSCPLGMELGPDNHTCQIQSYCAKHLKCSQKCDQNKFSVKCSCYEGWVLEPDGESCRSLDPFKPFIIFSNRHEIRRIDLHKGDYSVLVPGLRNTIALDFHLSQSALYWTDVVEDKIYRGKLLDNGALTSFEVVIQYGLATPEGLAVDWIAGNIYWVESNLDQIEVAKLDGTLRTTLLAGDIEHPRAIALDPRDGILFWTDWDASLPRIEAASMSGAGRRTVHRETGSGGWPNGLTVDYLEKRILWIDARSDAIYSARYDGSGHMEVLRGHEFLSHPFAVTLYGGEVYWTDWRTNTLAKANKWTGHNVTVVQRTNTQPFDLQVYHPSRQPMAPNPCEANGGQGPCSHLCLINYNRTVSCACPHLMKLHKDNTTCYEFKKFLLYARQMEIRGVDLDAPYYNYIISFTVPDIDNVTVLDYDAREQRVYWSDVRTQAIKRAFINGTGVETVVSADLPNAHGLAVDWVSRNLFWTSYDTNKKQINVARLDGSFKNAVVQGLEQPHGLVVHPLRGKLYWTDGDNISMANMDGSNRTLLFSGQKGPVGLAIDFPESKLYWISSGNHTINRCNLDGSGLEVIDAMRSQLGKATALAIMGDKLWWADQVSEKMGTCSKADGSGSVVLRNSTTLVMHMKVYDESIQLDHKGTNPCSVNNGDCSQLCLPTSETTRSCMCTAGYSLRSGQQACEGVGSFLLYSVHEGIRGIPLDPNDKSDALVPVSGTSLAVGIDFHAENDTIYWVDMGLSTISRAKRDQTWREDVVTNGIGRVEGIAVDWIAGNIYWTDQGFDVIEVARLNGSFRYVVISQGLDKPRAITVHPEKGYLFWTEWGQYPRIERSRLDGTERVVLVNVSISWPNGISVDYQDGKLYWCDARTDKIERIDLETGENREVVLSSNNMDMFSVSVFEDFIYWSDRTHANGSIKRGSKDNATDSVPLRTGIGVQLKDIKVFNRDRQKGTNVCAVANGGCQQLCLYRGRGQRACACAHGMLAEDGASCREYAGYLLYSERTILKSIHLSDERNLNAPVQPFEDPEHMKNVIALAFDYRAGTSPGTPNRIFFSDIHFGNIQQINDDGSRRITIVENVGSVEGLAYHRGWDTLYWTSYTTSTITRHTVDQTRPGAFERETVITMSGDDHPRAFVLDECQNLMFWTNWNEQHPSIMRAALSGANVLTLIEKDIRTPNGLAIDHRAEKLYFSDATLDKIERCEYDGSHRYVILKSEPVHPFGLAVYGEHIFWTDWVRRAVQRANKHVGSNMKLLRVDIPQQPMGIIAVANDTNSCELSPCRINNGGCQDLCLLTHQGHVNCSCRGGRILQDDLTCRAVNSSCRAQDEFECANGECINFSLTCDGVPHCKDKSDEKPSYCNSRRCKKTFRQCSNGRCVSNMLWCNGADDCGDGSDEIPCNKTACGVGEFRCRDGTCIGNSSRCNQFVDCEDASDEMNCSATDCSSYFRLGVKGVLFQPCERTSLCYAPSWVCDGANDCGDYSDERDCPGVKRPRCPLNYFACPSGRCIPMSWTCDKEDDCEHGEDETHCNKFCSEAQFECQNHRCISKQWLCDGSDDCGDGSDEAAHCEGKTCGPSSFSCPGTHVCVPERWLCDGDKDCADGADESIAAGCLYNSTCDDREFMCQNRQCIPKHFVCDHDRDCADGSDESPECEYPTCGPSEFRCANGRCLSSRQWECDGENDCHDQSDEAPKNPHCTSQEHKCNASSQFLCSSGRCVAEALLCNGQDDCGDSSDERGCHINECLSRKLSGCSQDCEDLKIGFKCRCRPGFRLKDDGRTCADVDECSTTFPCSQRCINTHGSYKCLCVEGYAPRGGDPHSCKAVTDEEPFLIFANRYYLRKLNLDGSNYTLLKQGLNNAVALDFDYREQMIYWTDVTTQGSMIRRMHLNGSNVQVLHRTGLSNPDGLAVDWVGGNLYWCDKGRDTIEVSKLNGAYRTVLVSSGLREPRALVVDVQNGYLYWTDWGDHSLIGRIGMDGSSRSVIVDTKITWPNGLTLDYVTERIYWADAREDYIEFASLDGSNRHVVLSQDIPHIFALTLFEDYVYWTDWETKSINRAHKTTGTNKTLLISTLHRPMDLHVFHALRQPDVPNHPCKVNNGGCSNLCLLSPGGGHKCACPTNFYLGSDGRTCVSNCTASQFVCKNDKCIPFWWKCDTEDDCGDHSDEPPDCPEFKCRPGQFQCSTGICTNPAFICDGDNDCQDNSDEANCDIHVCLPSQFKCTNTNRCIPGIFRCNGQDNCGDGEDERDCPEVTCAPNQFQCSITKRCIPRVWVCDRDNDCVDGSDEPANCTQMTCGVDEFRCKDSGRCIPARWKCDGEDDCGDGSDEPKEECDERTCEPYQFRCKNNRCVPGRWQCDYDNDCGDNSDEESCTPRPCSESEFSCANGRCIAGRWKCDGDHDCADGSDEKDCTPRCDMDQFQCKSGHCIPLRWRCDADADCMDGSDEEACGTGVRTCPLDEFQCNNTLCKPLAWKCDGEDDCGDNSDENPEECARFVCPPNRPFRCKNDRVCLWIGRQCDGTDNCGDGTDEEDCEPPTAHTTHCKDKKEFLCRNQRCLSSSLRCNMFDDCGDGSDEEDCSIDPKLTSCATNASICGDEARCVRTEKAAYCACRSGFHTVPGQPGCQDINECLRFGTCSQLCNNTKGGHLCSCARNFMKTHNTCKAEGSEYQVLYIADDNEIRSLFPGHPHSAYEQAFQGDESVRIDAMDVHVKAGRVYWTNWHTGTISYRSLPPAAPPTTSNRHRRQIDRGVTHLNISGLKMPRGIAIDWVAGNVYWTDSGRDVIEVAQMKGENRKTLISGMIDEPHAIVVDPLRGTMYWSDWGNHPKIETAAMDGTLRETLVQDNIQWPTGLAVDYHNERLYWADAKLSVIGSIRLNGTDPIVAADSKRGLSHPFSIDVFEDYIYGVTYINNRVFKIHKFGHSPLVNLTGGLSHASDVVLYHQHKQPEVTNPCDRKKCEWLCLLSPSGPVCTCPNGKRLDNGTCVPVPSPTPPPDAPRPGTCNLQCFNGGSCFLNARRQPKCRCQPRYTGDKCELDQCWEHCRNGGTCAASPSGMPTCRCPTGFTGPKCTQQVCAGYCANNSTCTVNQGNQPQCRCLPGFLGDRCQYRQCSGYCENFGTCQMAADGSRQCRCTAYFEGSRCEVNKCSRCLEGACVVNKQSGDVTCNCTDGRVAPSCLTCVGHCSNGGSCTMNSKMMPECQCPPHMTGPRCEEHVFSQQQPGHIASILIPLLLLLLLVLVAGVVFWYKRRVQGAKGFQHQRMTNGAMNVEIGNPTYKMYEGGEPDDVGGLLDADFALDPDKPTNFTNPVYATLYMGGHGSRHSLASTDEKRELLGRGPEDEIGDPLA

Sequence of CR56, LRP fragment containing domains CR5 and CR6 (from UniProt Q07954 932-1013) (domain or fragment) (Q07954 932-1013): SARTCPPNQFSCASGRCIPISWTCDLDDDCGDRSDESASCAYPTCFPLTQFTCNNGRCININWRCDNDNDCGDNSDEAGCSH
Sequence of CR56, LRP fragment containing domains CR5 and CR6 (UniProt Q07954) (Q07954 932-1013): as above
Sequence of CR678, LRP fragment containing domains CR6, CR7 and CR8 (Q07954 20-4544): as the sequence (Q07954 20-4544) above
Sequence of CR456, LRP fragment containing domains CR4, CR5 and CR6 (domain or fragment) (Q07954 20-4544): as above
Sequence of CR78, LRP fragment containing domains CR7 and CR8 (Q07954 20-4544): as above
Sequence of CR45, LRP fragment containing domains CR4 and CR5 (Q07954 20-4544): as above
Sequence of CR345, LRP fragment containing domains CR3, CR4 and CR5 (domain or fragment) (Q07954 20-4544): as above
Sequence of CR567, LRP fragment containing domains CR5, CR6 and CR7 (Q07954 20-4544): as above
Sequence of CR89, LRP fragment containing domains CR8 and CR9 (Q07954 20-4544): as above
Sequence of CR34, LRP fragment containing domains CR3 and CR4 (Q07954 20-4544): as above
Sequence of CR456, LRP fragment containing domains CR4, CR5 and CR6 (Q07954 20-4544): as above

Substance	pKd [1]	dH [1]	pKd [2]	pKd [3]	pKd [5]	pKd [6]	pKd [7]	pKd [8]	pKd [9]	pKd [21]	stoichiometry N (equivalents of CR per RAP) [11]	Kd1 (site 1, fixed in the fit) [20]	Kd2 (site 2) [20]	further results
RAP domain 3 (D3) (domain or fragment)	7.11	-17.1 kcal/mol	8.46	7.77	7.43	8.28	7.59	7.26	7.70					pKd [4]: 8.10
CR56, LRP fragment containing domains CR5 and CR6 (from UniProt Q07954 932-1013) (domain or fragment)											2	20 nM	56 nM	dH (overall, two equivalents of CR56) [10]: -39.2 kcal/mol; stoichiometry N [10]: 2 CR56 per RAP; stoichiometry N [12]: 2.1 CR56 per RAP; pKd (RAP domain 1 (D1) [13]): 7.59; pKd (RAP domain 2 (D2) [14]): 7.34; pKd (RAP domain 3 (D3) [15]): 7.39; stoichiometry N [16]: 2 CR56 per RAP and 2.6 CR56 per RAP; pKd (RAP domain 1 (D1) [17]): 7.54; pKd (RAP domain 2 (D2) [18]): 7.66; pKd (RAP domain 3 (D3) [19]): 8.15
CR345, LRP fragment containing domains CR3, CR4 and CR5 (domain or fragment)											2	20 nM	42 nM	stoichiometry N (CR345 per RAP) [12]: 1.8; stoichiometry N (CR345 per RAP) [16]: 2 and 2.3
CR456, LRP fragment containing domains CR4, CR5 and CR6 (domain or fragment)											2	10 nM	36 nM	

More lines, main results first:

pKd [1]	dH [1]	pKd [2]	pKd [3]	pKd [5]	pKd [6]	pKd [7]	pKd [8]	pKd [9]	pKd [21]	Substance	stoichiometry N (equivalents of CR per RAP) [11]	Kd1 (site 1, fixed in the fit) [20]	Kd2 (site 2) [20]	further results
6.57	-8.8 kcal/mol	7.72	7.52	7.27	7.74	7.36	6.94	7.38	7.64	RAP domain 2 (D2) (from UniProt P30533 35-357) (domain or fragment)				
7.21	-18.4 kcal/mol	7.42	7.62	7.70	7.82	6.07	6.03	7.46	7.64	RAP domain 1 (D1) (domain or fragment)				
